Measured values published in patent US20220332804A1 (CSL INNOVATION, published 2022).
Substitutions are numbered along the chain they refer to.

Experiments:
Experiment in all cases: SPR, KD relative to WT C2;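 further: biacore SPR at 37 °C, anti-C2 mAbs captured on anti-human IgG chips with alanine or serine point mutants of C2 as analyte, KD from 1:1 fit compared with wild-type C2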
human C2 F270A = molecular target: T1, human C2 F270A (human, UniProt P06681 21-752)
T1 sequence: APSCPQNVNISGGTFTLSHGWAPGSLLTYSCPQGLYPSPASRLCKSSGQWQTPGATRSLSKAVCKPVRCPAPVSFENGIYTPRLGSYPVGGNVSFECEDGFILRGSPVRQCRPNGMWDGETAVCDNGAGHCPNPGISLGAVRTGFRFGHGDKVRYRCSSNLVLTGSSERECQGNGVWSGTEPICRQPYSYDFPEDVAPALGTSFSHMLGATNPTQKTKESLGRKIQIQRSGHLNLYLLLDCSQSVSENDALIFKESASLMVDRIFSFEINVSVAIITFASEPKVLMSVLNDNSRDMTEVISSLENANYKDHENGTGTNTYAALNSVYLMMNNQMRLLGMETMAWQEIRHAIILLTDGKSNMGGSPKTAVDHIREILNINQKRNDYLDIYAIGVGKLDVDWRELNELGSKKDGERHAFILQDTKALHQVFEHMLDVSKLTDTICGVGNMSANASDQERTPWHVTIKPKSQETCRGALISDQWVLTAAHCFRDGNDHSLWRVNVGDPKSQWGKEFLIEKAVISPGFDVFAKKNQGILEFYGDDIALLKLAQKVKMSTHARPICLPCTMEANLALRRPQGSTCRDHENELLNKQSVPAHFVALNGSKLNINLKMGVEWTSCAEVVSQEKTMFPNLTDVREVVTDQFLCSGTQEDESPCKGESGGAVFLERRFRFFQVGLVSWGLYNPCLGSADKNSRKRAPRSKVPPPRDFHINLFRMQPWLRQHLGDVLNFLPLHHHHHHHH

human C2 I320A = molecular target: T2, human C2 I320A (human, UniProt P06681 21-752)
T2 sequence: T1 sequence with A250F, I300A

human C2 G427A = molecular target: T3, human C2 G427A (human, UniProt P06681 21-752)
T3 sequence: T1 sequence with A250F, G407A

human C2 V455A = molecular target: T4, human C2 V455A (human, UniProt P06681 21-752)
T4 sequence: T1 sequence with A250F, V435A

B1: RF16-242 (antibody, human IgG4 S228P, lambda, V domains shown)
VH: EVQLLQSGAEVKKPGESLKISCKGSGYSFTSYWIGWVRQMPGKGLEWMGIIYPGDSDTRYSPSFQGQVTISADKSISTAYLQWSSLKASDTAMYYCARRGHYGDYFDYWGQGTLVTVSS
VL: SYELTQPPSVSVSPGQTARITCSGDALPKKYAYWYHQKSGQAPVLVIYEDRRRPSEIPERFSGSSSGTMATLTITGAQVEDEGVYFCYSRDRAGNQRVFGGGTQLTVLG
notes: pH-dependent anti-C2 antibody from a phage display library
Which results are given for B1?
Fold diff (human C2 F270A): 15 fold; Fold diff (human C2 I320A): 10 fold; Fold diff (human C2 G427A): 1 fold; Fold diff (human C2 V455A): 1 fold
